Assay results as given in the supplement of paper PMC11780869.

System: Bacillus subtilis
Experiment: cleaved RNA product abundance (RNA/gDNA barcode ratio) relative to median wild-type variant (ratio to wild type); higher = more accumulation of the downstream cleavage product
Procedure: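 MPRA in B. subtilis. Mutagenized RNase Y cleavage-site regions (9% mutation rate) were inserted into a barcoded reporter mRNA (truncated aprE or tetM). Cells were grown in LB at 37°C to OD600 0.3. The cleaved RNA isoform was gel-purified and its barcodes counted; the RNA:gDNA barcode ratio was normalised to the median wild-type variant, and the median over barcodes is reported per variant. The printed sequence is the variable window only; the reporter flanks are not printed.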

[1] = experiment (reporter, strain, medium): exp 2b: truncated aprE reporter, strain BJT200, cleavage site: cggR-gapA (positions -7 to +36 mutated)
[2] = experiment (reporter, strain, medium): exp 4a: truncated aprE reporter, strain BJT201 with 2% xylose (RNase J1 expressed), cleavage site: cggR-gapA (positions -7 to +36 mutated)
[3] = experiment (reporter, strain, medium): exp 8a: truncated aprE reporter, strain BJT201 with 2% xylose (RNase J1 expressed), cleavage site: glnRA (positions -5 to +31 mutated)
[4] = experiment (reporter, strain, medium): exp 6: tetM reporter, strain 168, cleavage site: cggR-gapA (positions -7 to +36 mutated)

Sequence | cleaved RNA product abundance [1] | cleaved RNA product abundance [2] | cleaved RNA product abundance [3] | cleaved RNA product abundance [4]
ACAGACGAAGGAGCCGCAAAGAAGTTATTAAGGGATTAATAATCGCTCAATATAAATATCTCTCACTTATTTAAA | 0.109 | 0.0904 |  | 
CGACATGTCCCGCTTCTTTCATTAATCCGTTAGCAACTTTTTGGCTATATACATTTACCTTTTAAGAGGAGGAAT |  |  | 0.563 | 
ACAGACGAAGGAGCCGCAAAGAAGTTATTAAGGGATGAATAATCTCTCAATATAAATATCTCTCACTTATTTAAA | 0.688 | 0.738 |  | 0.96
ACAGACGAAGGAGCCGCAAAGAAGTTATTCAGGTATGAATAATCCCTCAATATAAATATCTCTCACTTATTTAAA |  | 0.161 |  | 
ACAGACGAAGGAGCCGCAAAGAAGTTATTAAGGGATGAATAATCCCTCCACATAAATATCTCTCACTTATTTAAA | 0.108 |  |  | 
ACAGACGAAGGAGCCGCAAAGAAGTTATTAAGGGATGAATAATCCCTAAATATAAATATCTCTCACTTATTTAAA | 0.622 | 0.72 |  | 0.772
ACAGACGAAGGAGCCGCAAATAAGTTATTAAGTGATGAATAATCCCTCAATATAAATATCTCTCACTTATTTAAA | 0.109 | 0.107 |  | 
ACAGACGAAGGAGCCGCAAAGAAGATAGTAAGGGATGAATAATCCCTCAATATAAATATCTCTCACTTATTTAAA |  | 0.265 |  | 
ACAGACGAAGGAGCCGCAAAGAACATATTAAGGGATGAATAATCCCTCAATATAAATATCTCTCACTTATTTAAA | 0.607 | 0.499 |  | 
ACAGACGAAGGAGCCGCAAAGAAGTTATTAAGGGATGAATAATGCCTCTATATAAATATCTCTCACTTATTTAAA | 0.111 |  |  | 
ACAGACGAAGGAGCCGCAAATAATTTATTAAGGGATGAATAATCCCTCAATATAAATATCTCTCACTTATTTAAA | 0.866 | 0.591 |  | 
ACAGACGAAGGAGCCGCAAAGAAGTAATTAAGGGATGAATAATCTCTCAATATAAATATCTCTCACTTATTTAAA | 0.213 | 0.244 |  | 
ACAGACGAAGGAGCCGCAAAGAAGTTATTAAGCGATGAATAATCCCTCAATATAAACATCTCTCACTTATTTAAA | 0.0873 | 0.0627 |  | 
CGACATGTCCCGCTTCTTTCATTAATCCGTAAGCAACTGATTTGCTATATACATTTACCTTTTAAGAGGAGGAAT |  |  | 0.25 | 
ACAGACGAAGGAGCCGCAAAGAAGTTATTAAGGGATGAATAATCCCTCAATATAAATACATCTCACTTATTTAAA |  | 0.712 |  | 
ACAGACGAAGGAGCCGCAAAGAAGTTATTAAAGGATGAATAATCCCTCACTATAAATATCTCTCACTTATTTAAA | 0.113 | 0.152 |  | 
ACAGACGAAGGAGCCGCAGAGAAGTTATTAAAGGATGAATAATCCCTCAATATAAATATCTCTCACTTATTTAAA | 0.128 | 0.227 |  | 
ACAGACGAAGGAGCCGCAAAGAAGATATTAAGGGATGAATAATCGCTCAATATAAATATCTCTCACTTATTTAAA |  | 0.228 |  | 
ACAGACGAAGGAGCCGCAAAGAACTTATTAAGGGATGAATTATCCCTCAATATAAATATCTCTCACTTATTTAAA | 0.284 | 0.31 |  | 
ACAGACGAAGGAGCCGCAAAGAAGTTATTAAGGGATGAATACTCACTCAATATAAATATCTCTCACTTATTTAAA |  | 0.0953 |  | 
ACAGACGAAGGAGCCGCAAAGAAGTTATTAAGGGATGAATAATCACTCAATATAAATATCTCTCACTTATTTAAA | 0.111 | 0.14 |  | 0.0875
ACAGACGAAGGAGCCGCAAGGAAGTTATTAAGGGATGAATCATCCCTCAATATAAATATCTCTCACTTATTTAAA | 0.824 | 0.633 |  | 
ACAGACGAAGGAGCCGCAAAGAAGTTATTAACGCATGAATAATCCCTCAATATAAATATCTCTCACTTATTTAAA |  | 0.0743 |  | 
ACAGACGAAGGAGCCGCTAAGAAGTTATTAAGGGATGAATAACCCCTCAATATAAATATCTCTCACTTATTTAAA |  | 0.437 |  | 
CGACATGTCCCGCTTCTTTCATTACACCGTTAGCAACTGTTTTGCTATATACATTTACCTTTTAAGAGGAGGAAT |  |  | 1.39 | 
